Experimental data reported in US20210369837A1, “METHODS OF TREATING TIM-3 ELEVATION” (ADVANTAGENE, INC., priority 2016, published 2021).

Tested on: PD-L1
Assay: Flow cytometry of PD-L1 protein expression after interferon treatment
Assay type: cell-based, mouse
Settings: CT2A and GL261 cells, day 4 post-treatment, IFN-β 1000 U/ml (FIGS. 5C-5F)
Experimental: In another experiment, CT2A and GL261 cells were treated with IFN-β (1000 U/ml) (PBL Assay Science, Piscataway N.J.) and/or MAR-1-5A3 monoclonal antibody against IFNAR1 (BioXcel, West Lebanon, N.H.) ([…]). Cells were analyzed by flow cytometry for PD-L1 protein expression at day 4 post-treatment using either in the absence of specific antibody (isotype) or with PD-L1 specific antibody (BD Bioscience, San Jose, Calif.). Cells analyzed were either subjected to no treatment (untreated), or treated with INFα or INFβ.
FIG. 5D and FIG. 5F show quantification of the percent of live cells analyzed by flow cytometry that express surface PD-L1 above baseline.

B1: IFN-β: IFN-β (1000 U/ml) (PBL Assay Science) used to treat CT2A and GL261 cells (protein, UniProt P01575 22-182, looked up)
Interferon beta: INYKQLQLQERTNIRKCQELLEQLNGKINLTYRADFKIPMEMTEKMQKSYTAFAIQEMLQNVFLVFRNNFSSTGWNETIVVRLLDELHQQTVFLKTVLEEKQEERLTWEMSSTALHLKSYYWRVQRYLKLMKYNSYAWMVVRAEIFRNFLIIRRLTRNFQN
- Surface expression of PD-L1 protein: increased surface expression of PD-L1 protein
- Surface expression of PD-L1 protein (listed as INFβ): Increases in surface PD-L1 expression
